From the supplement of paper PMC9732359
± gives the uncertainty stated by the source.

test: protein stability index of a GFP-peptide fusion (yeast GPS) (PSI 1-4); higher = more stable; sorted into four equal gates, so the index is relative within each strain; details: doa10∆
Outline: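 Mid-log yeast cultures in leucine-free medium, carrying a pooled plasmid library, were sorted into four equal gates by their GFP/Cherry fluorescence ratio. Each plasmid expressed Cherry along with GFP fused upstream of a tiled 17-residue yeast protein peptide. Plasmids recovered from each gate were PCR-amplified and Illumina-sequenced, with reads assigned to strains by barcodes. The protein stability index was obtained by summing each gate's read frequency weighted by its gate number.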

Sequence	protein stability index
VKIGKFIPHGLKRRQVI [SRB8]	2.48 ± 0.1
VKIRATGGTRTKTPGPG [RPS14A]	3.21 ± 0.25
VKKILPLYARYINVNPQ [ECM29]	2.43 ± 0.056
VKKPQKSKTSTGKERSK [SNM1]	3.15 ± 0.07
VKKTGENEISSLLAMHK [CDC53]	2.75 ± 0.3
VKKVQLGKKGVPYVVTH [RPS4A]	1.77 ± 0.098
VKKVVKEQTEAAKKSEK [RPL34A]	3.37 ± 0.14
VKLIVMLCTLTGYQNND [YJL039C/NUP192]	1.89 ± 0.12
VKVARLAGKYIPNLTAK [FAS1]	3.34 ± 0.25
VKWYHFDHNDKKLSINS [PRE7]	2.51 ± 0.086
VKYASPNLNMKYRKRQL [FAS2]	3.6 ± 0.14
VKYMPEQKITEIEDGQD [RPO21]	3.19 ± 0.12
VLCTRLRLSNFFTIDHF [SIR2]	2.19 ± 0.064
VLDSMTKEELESDGRMF [SRP54]	3.02 ± 0.088
VLIDLLNWFRTTNMNVN [RGR1]	2.9 ± 0.11
VLILLHAERDLALAETL [SRP68]	2.3 ± 0.06
VLKFAAHTGATPIAGRF [RPS0A]	2.23 ± 0.21
VLKFTFTGEKPIITGST [MED8]	2.01 ± 0.082
VLKSSVYEYVIASTLGP [RPC82]	1.43 ± 0.085
VLKTLIEKFEQVPDSLD [RPN6]	3.16 ± 0.093
VLMERKDERGEGEAKQK [ITC1]	2.94 ± 0.21
VLNGQKIVVVRAEALNI [RPL16B]	2.47 ± 0.14
VLPAATKKKSKFMTNST [ARP9]	2.74 ± 0.055
VLRTALVHDGLARGLRE [RPS12]	2.57 ± 0.17
VLSDDAKKLSSFDFGNE [ARP9]	2.93 ± 0.055

Sequence	protein stability index
VLTHESLHRQQQQQQQQ [DLS1]	3 ± 0.082
VLVASAKGLQTVVVEED [RPL31A]	2.19 ± 0.1
VMDTIQEQITLYDHWDK [SSN8]	3.14 ± 0.12
VMLKGIVTALLESDVNI [SRP54]	1.3 ± 0.054
VMTVPGIDPTRIYTNSF [RPO21]	2.44 ± 0.072
VMTYKGEVLGITRFGLS [RPO31]	3.37 ± 0.16
VMYGTAYKFEEVSKDLI [RPB8]	2.9 ± 0.062
VNDEEEHKQLVAEIVQN [RPC82]	2.64 ± 0.12
VNDNPDIEAGDDDDNNE [DIS3]	3.46 ± 0.19
VNIEPFNIDDEIKHGVF [LIN1]	3.48 ± 0.15
VNNGNIPSQRGTSTTHG [SIR3]	2.37 ± 0.16
VNNTRRRVYNRVLETTL [BRN1]	2.5 ± 0.07
VNRLLSVIPLKGRYAPE [RRP4]	1.85 ± 0.17
VNRSVVVSAVGEARNDI [YAR002W/NUP60]	2.62 ± 0.044
VPCDRIEKSRLFSEKTI [SNF6]	2.58 ± 0.11
VPLIKVADAKQLGEWAG [RPS12]	3.17 ± 0.21
VPPIASPQQFLRAHTDD [PRE2]	2.02 ± 0.068
VPPTIAQFQYTLDRNTA [RPL8A]	1.83 ± 0.06
VPPVENFPVRQWSIEIV [TAF14]	3.15 ± 0.064
VPRKFKHFIQGGSFGNR [RPL7A]	3.36 ± 0.13
VPYVVTHDGRTIRYPDP [RPS4A]	3.08 ± 0.1
VQCPTVIKLAKYPDYFP [ARP9]	2.15 ± 0.079
VQEQLSKNRIIVEADEK [RET1]	1.52 ± 0.088
VQGGNAAPSAADIKAVV [RPP2B]	3.01 ± 0.084
VQHDQILVMETSEEQTK [SWP82]	2.99 ± 0.092

Sequence	protein stability index
VQLKDANSQIQAYEEII [YIL149C/MLP2]	2.69 ± 0.12
VQVKVLGKYEFSKILPA [ESC2]	2.03 ± 0.15
VRKAITVLFFIGVRCYE [FAS1]	1.47 ± 0.087
VRKELRGRAVVLMGKNT [RPP0]	1.71 ± 0.067
VRLLCRSDGMGNVLLNA [YLR335W/NUP2]	1.94 ± 0.17
VRNFKEAAKLLVDSLAT [RPN7]	2.23 ± 0.18
VRSEMGEPIHKIATRGV [FAS1]	3.14 ± 0.29
VRVQRQKKILSIRLKVP [RPL8A]	1.49 ± 0.032
VSADDFVEEQNVYVLPK [PRP8]	3.44 ± 0.099
VSALDKCIKYSEKLITK [ECM29]	3.18 ± 0.14
VSDSEIIDLNLHSFTKQ [POP6]	2.72 ± 0.061
VSEVAKIMQEATQSGGV [PRE8]	2.96 ± 0.11
VSGDLNPIHVSRHFASY [FAS1]	2.51 ± 0.12
VSISTSVKPHVVEPEHM [SIR4]	2.54 ± 0.078
VSITDAPKIHILDPSTE [YMR129W/POM152]	1.56 ± 0.055
VSITPGKIEKIAQSKKK [SRP21]	1.62 ± 0.081
VSKKVDVRRLKKNVWRS [BRN1]	2.54 ± 0.22
VSLTKRKQEREITSLRQ [YIL149C/MLP2]	2.03 ± 0.2
VSNRVAAPARAGAVAPE [RPP0]	2.06 ± 0.11
VSNSISRLGEENLPGLS [SNU114]	1.14 ± 0.12
VSPNDNNSANNNAHSSD [YMR153W/NUP53]	2.91 ± 0.05
VSPNISSASPSALTSPT [SIR3]	2.45 ± 0.056
VSQVRVVPNEKADDDSV [ASC1]	2.72 ± 0.17
VSSKPSKPESSVLQLIV [MED1]	2.73 ± 0.13
VTAKLLGFTPGELRSYL [FAS1]	2.91 ± 0.073

Sequence	protein stability index
VTDDPIWMRGHGTYFLD [RRP4]	3.22 ± 0.067
VTDLSGKETIARVTGGM [RPS14B]	3.03 ± 0.087
VTGASQFQRLAPSLTVP [PRE2]	2.01 ± 0.096
VTIIPLDKIYTRPISSQ [SMC2]	1.66 ± 0.067
VTKDTKKYSSKNKYGEI [SRP68]	2.82 ± 0.11
VTLKGAKALESLASCLR [POP1]	3.12 ± 0.073
VTPEDVMTISSLEQRTL [RPC82]	3.2 ± 0.084
VTQKDICILGILDLCQL [CSI1]	2.59 ± 0.091
VTVVDTPPVVVVGVVGY [RPL3]	1.17 ± 0.051
VVDFKNKENDNVPSTKF [SNF12]	3.6 ± 0.19
VVEPEHMADAKIMPKDI [SIR4]	3.28 ± 0.1
VVFRDPYKYRLREEIFI [RPL2A]	2.47 ± 0.12
VVGVVGYVETPRGLRSL [RPL3]	2.15 ± 0.072
VVIDAFRLIDTGALINN [RPN11]	1.27 ± 0.16
VVLGVEKRATSPLLESD [PUP2]	2.98 ± 0.16
VVTSSVAESFTDEADSS [SNF2]	3.03 ± 0.095
VVVAETSPEKKDGGDKP [YAR002W/NUP60]	2.85 ± 0.19
VWGSETVASSKVGYTLP [RPL4A]	3.03 ± 0.059
VYDFYGRHVATCSSDQH [YGL100W/SEH1]	2.75 ± 0.068
VYEYVIASTLGPSAMRL [RPC82]	2.38 ± 0.21
VYFGDENKVMLPRCSKE [RRI2]	3.24 ± 0.091
VYNLALKCAERQLTSME [NUT1]	2.38 ± 0.073
VYPITLSTDATSADLKS [UBP6]	2.32 ± 0.063
